# Assays:
# DNA = details: sequence specific binding; cited from earlier work
# CAP7/CAP8/CAP9 construct = experiment: CAP assay variant with DNA linked by a long flexible linker; format: binding, E. coli; details: 75 nM CAP
# Source text: The properties of the assay illustrated in FIG. 1 depend upon the total concentration of the nucleic acid components. By covalently linking the two DNA duplexes—i.e., the components of the assay—by a long flexible linker, the assay becomes independent of DNA concentration, within a range of detectability of fluorescence signal and within a range of concentration required for efficient protein binding. FIG. 11 illustrates the design this variant of the assay for CAP detection. The nucleic acid components of the assay were covalently linked during oligonucleotide synthesis by introducing 12 moieties of the Spacer 18 phosphoramidate (Glen Research, Sterling, Va.), the structure of which is shown in FIG. 11B. The addition of 12 units of Spacer 18 results in a distance of ˜270 Å between the linked oligonucleotides. […]
# FIG. 12 illustrates the enhanced performance of the variation of the invention depicted in FIG. 11. […] The kinetics of CAP induced fluorescence quenching was also studied to determine the incubation time necessary for the completion of the assay (FIG. 12B). In this experiment, the fluorescence intensity of 50 nM of the CAP7/CAP8/CAP9 construct was monitored as a function of time at 520 nm with the excitation wavelength set at 490 nm. At the time indicated by the arrow in FIG. 12B, 75 nM CAP protein was added and the monitoring of the fluorescence signal was resumed. […]
# [1] = tested on: CAP6/CAP1 and CAP2/CAP3 nucleic acid duplexes; experiment: CAP assay with coumarin donor and fluorescein acceptor; format: binding, E. coli; details: 0 to 150 nM CAP, excitation 433 nm
# Source text: (§1) Amino-Modifier C2 dT (Glen Research, Sterling, Va.) was incorporated into positions that are equivalent to the positions at which fluorescein-dT and dabcyl-dT has been used previously in CAP2 and CAP4 oligonucleotides, respectively. Amino-Modifier C2 dT contains a reactive aliphatic amino group that can be used to covalently attach any amino-reactive fluorescence probe. CAP5 (SEQ ID NO:7) and CAP6 (SEQ ID NO:8) oligonucleotides were modified with 7-diethylaminocoumarin-3-carboxylic acid, succinimidyl ester. This fluorochrome is excited at 433 nm and the maximum emission occurs at 475 nm providing the possibility of testing the assay with different emission colors. […]
# In a second experiment (FIG. 9), the pair of CAP6/CAP1 and CAP2/CAP3 nucleic acid duplexes were tested for the performance in CAP assay. In this assay format, the 7-diethylaminocoumarin-3-carboxylic acid present in the CAP6/CAP1 duplex functioned as a fluorescence donor and the fluorescein present in the CAP2/CAP3 duplex functioned as an acceptor. […] Also, as shown in the inset of FIG. 9, the ratio between the fluorescence intensities at 520 nm and 475 nm may be used to determine the concentration of nucleic acid binding proteins. […]
# [2] = tested on: CAP5/CAP3 and CAP4/CAP1 nucleic acid duplexes; experiment: CAP assay with 7-diethylaminocoumarin-3-carboxylic acid donor and dabcyl acceptor; format: binding, E. coli; details: 100 nM CAP, 50 nM duplexes, 200 μM cAMP
# Source text: as §1, with “colors. To modify the […], ˜20 nmoles of the oligonucleotides were dissolved in 50 μl of 50 mM NaHCO3 (pH 8.3) and 50 nmoles of dry 7-diethylaminocoumarin-3-carboxylic acid, succinimidyl ester (Molecular Probes, Eugene, Oreg.) were added. The reaction mixture was incubated overnight at room temperature.” for “colors.”
# In the first experiment (FIG. 8), the pair of CAP5/CAP3 and CAP4/CAP1 nucleic acid duplexes were tested in the CAP assay. In this format, the 7-diethylaminocoumarin-3-carboxylic acid label present in the CAP5/CAP3 duplex functions as the fluorescence donor and the dabcyl label present in the CAP4/CAP1 duplex functions as a fluorescence acceptor.
# [3] = tested on: TRP2/TRP3 and TRP1/TRP4 duplexes; experiment: two-color simultaneous detection, fluorescein-labeled TrpR constructs; format: binding; details: excitation 490 nm, one protein only
# Source text: The compatibility of the assays described in the instant invention with a variety of fluorescence probes emitting at different wavelengths allows for the designing of variations in which two or more proteins may be detected simultaneously. Nucleic acid constructs specific for each of the proteins to be detected may be labeled with probes that emit light at different wavelengths. In this example, the reaction mixture contained nucleic acid constructs labeled with 7-diethylaminocoumarin-3-carboxylic acid for detecting CAP protein (described in EXAMPLE 2) and nucleic acid constructs labeled with fluorescein for detecting TrpR protein (described in EXAMPLE 6). Specifically, 100 nM CAP5/CAP3, 120 nM CAP1/CAP4, 100 nM TRP2/TRP3, and 120 nM TRP1/TRP4 duplexes were present in the reaction mixture.
# The fluorescence spectra with the excitation at 433 nm (excitation of 7-diethylaminocoumarin-3-carbo acid, FIG. 17A) and with the excitation at 490 nm (excitation of fluorescein, FIG. 17B) were recorded in the absence of the proteins (curves 1), in the presence of CAP only (curves 2), in the presence of TrpR only (curves 3), and in the presence of both CAP and TrpR (curves 4). In the presence of only CAP there was no change in the fluorescein signal (FIG. 17B, curve 2) whereas about 60% quenching of the 7-diethylaminocoumarin-3-carbox acid signal was observed (FIG. 17A, curve 2). […]
molecule,measurement,setting,value
"CAP: bacterial transcription activator from E. coli which binds DNA in a sequence specific, cAMP-dependent manner (protein, UniProt P0ACJ8 2-210, looked up) DNA-binding transcriptional …: VLGKPQTDPTLEWFLSHCHIHKYPSKSTLIHQGEKAETLYYIVKGSVAVLIKDEEGKEMILSYLNQGDFIGELGLFEEGQERSAWVRAKTACEVAEISYKKFRQLIQVNPDILMRLSAQMARRLQVTSEKVGNLAFLDVTGRIAQTLLNLAKQPDAMTHPDGMQIKITRQEIGQIVGCSRETVGRILKMLEDQNLISAHGKTIVVYGTR",Kd,DNA,~0.1 nM
same,time for completion of the reaction,CAP7/CAP8/CAP9 construct,≤ 20 s
same,quenching of the fluorescence signal,"CAP7/CAP8/CAP9 construct; 50 nM construct, 200 μM cAMP",~70%
same,change of emission peaks,[1],pronounced quenching of the peak at 475 nm and a pronounced enhancement of the peak at 520 nm
same,quenching of the fluorescence signal,[2],~70%
same,quenching of the fluorescein signal,[3],no change

# Reference: US7172865B2, “Rapid and sensitive assay for the detection and quantification of coregulators of nucleic acid binding factors” (Saint Louis University, priority 2001, dated 2007)
